First the molecules themselves.
B1: CyPPO19 A167C + V305L + F360V: variant of CyPPO19 PPO protein (SEQ ID NO: 1) (protein)
chain: MSEVDVAIVGGGLSGLSLAWRLQQSAPQYSVVLLEASDRLGGNITTQTAEGFVWELGPNSFAPTPALLQLIAEVGLQSELIRGDRHLPRYIYWRGQLYPLQPTRPLALATSNLLSPWGKVRAALGALGFVPPYLGSGDESVNSFFRRHLGQEVAERLVAPFVSGVYCGDPQQLSAAAAFRRIAQLEKLGGGLIAGALHLRRQQAPKPKPPTSVQMRPGELGSFKEGLAALPRAIAQQLKAPIHLQTPVQEITPDPKGGYLLRSGEQTWRARSVVLATPAYQTAELVAPFQPAIARVLATIPYPTLACVVLAYPAGLGRSVRPGFGVLIPRSQGIRTLGTIWSSCLFPQRTPAGWQVFTSVIGGATDPDLASLSEEAIVQQVQQDLNRLLDLPAAKARLLGMKVWRRAIPQYMVGYPEQWQQVTHALSQTPGLFLCSNYAEGVALGDRVEHGNRTAAAVAAYLSGGQP
modifications: Synthetic_PPO of Thermosynechococcus elongatus PKUAC-SCTE542 (comprising GenBank No. CP032152.1)
B2: CyPPO19 A167L + L327T + F360M: variant of CyPPO19 PPO protein (SEQ ID NO: 1) (protein)
chain: B1 chain with C167L, L305V, L327T, V360M
modifications: Synthetic_PPO of Thermosynechococcus elongatus PKUAC-SCTE542 (comprising GenBank No. CP032152.1)
B3: CyPPO19 A167C + L327T + F360I: variant of CyPPO19 PPO protein (SEQ ID NO: 1) (protein)
chain: B1 chain with L305V, L327T, V360I
modifications: Synthetic_PPO of Thermosynechococcus elongatus PKUAC-SCTE542 (comprising GenBank No. CP032152.1)
B4: CyPPO19 A167L + V305M + F360T: variant of CyPPO19 PPO protein (SEQ ID NO: 1) (protein)
chain: B1 chain with C167L, L305M, V360T
modifications: Synthetic_PPO of Thermosynechococcus elongatus PKUAC-SCTE542 (comprising GenBank No. CP032152.1)
B5: CyPPO19 A167C + I408W + F360I: variant of CyPPO19 PPO protein (SEQ ID NO: 1) (protein)
chain: B1 chain with L305V, V360I, I408W
modifications: Synthetic_PPO of Thermosynechococcus elongatus PKUAC-SCTE542 (comprising GenBank No. CP032152.1)
B6: CyPPO19 A167I + L327T + F360V: variant of CyPPO19 PPO protein (SEQ ID NO: 1) (protein)
chain: B1 chain with C167I, L305V, L327T
modifications: Synthetic_PPO of Thermosynechococcus elongatus PKUAC-SCTE542 (comprising GenBank No. CP032152.1)

Where a chain is given by its changes, count along the chain named. Names and notes keep the numbering of the source.

Experimental findings from US12698507B2, “Methods and compositions for conferring and/or enhancing herbicide tolerance using protoporphyrinogen IX oxidase of various cyanobacteria or variant thereof” (FarmHannong Co., Ltd., priority 2019, dated 2026) are described below.

In this assay the test system is PPO-deficient BT3 E. coli (ΔPPO). The experiment in a line: PPO-inhibiting herbicide tolerance test of PPO variants in E. coli (growth on herbicide-containing LB agar). The class given is cell-based. The following applies: CyPPO19 variants in BT3 (ΔPPO) E. coli; LB agar with 0 to 2,000 μM herbicide, 37° C., dark, 16-20 hours. An outline of the steps:
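Tolerance was scored against wild-type enzyme: '−' for equal growth, one '+' per 10-fold gain, up to '+++++'. ΔPPO BT3 cells carrying variant plasmids, spotted as a 10-fold dilution series from OD600=0.5, grew 16-20 h at 37° C. in the dark on ampicillin LB agar containing 0 to 2,000 μM herbicide.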
Consider B1, for which the “tolerance level relative to wild type, Carfentrazone” value was “+ (‘+’ per each 10-fold resistance)”; the “tolerance level relative to wild type, Flumioxazin” value is listed as “+++++ (until ‘+++++’ as maximal resistance)”; the “tolerance level relative to wild type, Fomesafen” value was “+ (‘+’ per each 10-fold resistance)”; the “tolerance level relative to wild type, Oxyfluorfen” value is listed as “++ (‘+’ per each 10-fold resistance)”. Further, the “tolerance level relative to wild type, Saflufenacil” value is on record as “+++++ (until ‘+++++’ as maximal resistance)”; the “tolerance level relative to wild type, Sulfentrazone” value was “+ (‘+’ per each 10-fold resistance)”; the “tolerance level relative to wild type, Tiafenacil” value is recorded as “++++ (‘+’ per each 10-fold resistance)”.
In the case of B2, the “tolerance level relative to wild type, Carfentrazone” value is listed as “+ (‘+’ per each 10-fold resistance)”; the “tolerance level relative to wild type, Flumioxazin” value is “+++++ (until ‘+++++’ as maximal resistance)”; the “tolerance level relative to wild type, Fomesafen” value was “+++ (‘+’ per each 10-fold resistance)”; the “tolerance level relative to wild type, Oxyfluorfen” value was “+++ (‘+’ per each 10-fold resistance)”. The “tolerance level relative to wild type, Saflufenacil” value is listed as “+++++ (until ‘+++++’ as maximal resistance)”; the “tolerance level relative to wild type, Sulfentrazone” value was “+++++ (until ‘+++++’ as maximal resistance)”; the “tolerance level relative to wild type, Tiafenacil” value was “+++++ (until ‘+++++’ as maximal resistance)”.
In the case of B3, the “tolerance level relative to wild type, Carfentrazone” value is “+ (‘+’ per each 10-fold resistance)”; the “tolerance level relative to wild type, Flumioxazin” value was “++++ (‘+’ per each 10-fold resistance)”; the “tolerance level relative to wild type, Fomesafen” value is reported as “++ (‘+’ per each 10-fold resistance)”; the “tolerance level relative to wild type, Oxyfluorfen” value is “+++ (‘+’ per each 10-fold resistance)”. In addition, the “tolerance level relative to wild type, Saflufenacil” value is listed as “+++ (‘+’ per each 10-fold resistance)”; the “tolerance level relative to wild type, Sulfentrazone” value is “++++ (‘+’ per each 10-fold resistance)”; the “tolerance level relative to wild type, Tiafenacil” value was “++++ (‘+’ per each 10-fold resistance)”.
On to B4, for which the “tolerance level relative to wild type, Carfentrazone” value is listed as “+ (‘+’ per each 10-fold resistance)”; the “tolerance level relative to wild type, Flumioxazin” value was “+++++ (until ‘+++++’ as maximal resistance)”; the “tolerance level relative to wild type, Fomesafen” value was “+++ (‘+’ per each 10-fold resistance)”; the “tolerance level relative to wild type, Oxyfluorfen” value is “+++ (‘+’ per each 10-fold resistance)”. Further, the “tolerance level relative to wild type, Saflufenacil” value is “+++++ (until ‘+++++’ as maximal resistance)”; the “tolerance level relative to wild type, Sulfentrazone” value was “+++++ (until ‘+++++’ as maximal resistance)”; the “tolerance level relative to wild type, Tiafenacil” value was “++++ (‘+’ per each 10-fold resistance)”.
On to B5, for which the “tolerance level relative to wild type, Carfentrazone” value is recorded as “+ (‘+’ per each 10-fold resistance)”; the “tolerance level relative to wild type, Flumioxazin” value was “+++++ (until ‘+++++’ as maximal resistance)”; the “tolerance level relative to wild type, Fomesafen” value is “+++ (‘+’ per each 10-fold resistance)”; the “tolerance level relative to wild type, Oxyfluorfen” value is on record as “+++ (‘+’ per each 10-fold resistance)”. Further, the “tolerance level relative to wild type, Saflufenacil” value is on record as “+++++ (until ‘+++++’ as maximal resistance)”; the “tolerance level relative to wild type, Sulfentrazone” value is “+++++ (until ‘+++++’ as maximal resistance)”; the “tolerance level relative to wild type, Tiafenacil” value is listed as “+++++ (until ‘+++++’ as maximal resistance)”.
With B6, the “tolerance level relative to wild type, Carfentrazone” value is “+ (‘+’ per each 10-fold resistance)”; the “tolerance level relative to wild type, Flumioxazin” value was “+++++ (until ‘+++++’ as maximal resistance)”; the “tolerance level relative to wild type, Fomesafen” value is recorded as “+++ (‘+’ per each 10-fold resistance)”; the “tolerance level relative to wild type, Oxyfluorfen” value is on record as “+++ (‘+’ per each 10-fold resistance)”. For the same molecule, the “tolerance level relative to wild type, Saflufenacil” value is listed as “+++++ (until ‘+++++’ as maximal resistance)”; the “tolerance level relative to wild type, Sulfentrazone” value is reported as “+++++ (until ‘+++++’ as maximal resistance)”; the “tolerance level relative to wild type, Tiafenacil” value is “+++++ (until ‘+++++’ as maximal resistance)”.
